koff, kon and Kd data for 1 substance are collected here from US20160361280A1.

The target in assay [1] is hCD1d/β-2-microglobulin refolded with ThrCer carbamate 11 (human) (UniProt P15813). The experiment in a line: SPR (BIAcore), kinetics; TCR injected over immobilised biotinylated hCD1d-lipid. In general terms: In SPR one partner is held on a chip, and binding of the other changes the refractive index at the surface.
Assay [2] deals with hCD1d/β-2-microglobulin refolded with ThrCer 2 (human) (UniProt P15813). Described as above.
Assay [3] deals with hCD1d/β-2-microglobulin refolded with α-GalCer 1 (human) (UniProt P15813). The description is as above.
For assay [4], the target named is hCD1d/β-2-microglobulin refolded with ThrCer thioamide 9 (human) (UniProt P15813). The description is as above.
The target of assay [5] is hCD1d/β-2-microglobulin refolded with α-GalCer carbamate 8 (human) (UniProt P15813). Described as above.
Assay [6] concerns the target hCD1d/β-2-microglobulin refolded with α-GalCer thioamide 6 (human) (UniProt P15813). Described as above.
Assay [7] addresses hCD1d/β-2-microglobulin refolded with ThrCer carbamate 11 (human) (UniProt P15813). The experiment in a line: SPR (BIAcore); calculated from experimental koff and Kd.
Assay [8] addresses hCD1d/β-2-microglobulin refolded with ThrCer 2 (human) (UniProt P15813). The description is as above.
In assay [9] the target is hCD1d/β-2-microglobulin refolded with α-GalCer 1 (human) (UniProt P15813). The assay is described as above.
Assay [10] addresses hCD1d/β-2-microglobulin refolded with ThrCer thioamide 9 (human) (UniProt P15813). The description is as above.
Assay [11] deals with hCD1d/β-2-microglobulin refolded with α-GalCer carbamate 8 (human) (UniProt P15813). The assay is described as above.
Assay [12] concerns the target hCD1d/β-2-microglobulin refolded with α-GalCer thioamide 6 (human) (UniProt P15813). The description is as above.
The target of assay [13] is hCD1d/β-2-microglobulin refolded with ThrCer carbamate 11 (human) (UniProt P15813). Put plainly: SPR (BIAcore), equilibrium binding; TCR injected over immobilised biotinylated hCD1d-lipid.
The target in assay [14] is hCD1d/β-2-microglobulin refolded with ThrCer 2 (human) (UniProt P15813). Described as above.
Assay [15] concerns the target hCD1d/β-2-microglobulin refolded with α-GalCer 1 (human) (UniProt P15813). The assay is described as above.
The target in assay [16] is hCD1d/β-2-microglobulin refolded with ThrCer thioamide 9 (human) (UniProt P15813). The assay is described as above.
In assay [17] the target is hCD1d/β-2-microglobulin refolded with α-GalCer carbamate 8 (human) (UniProt P15813). Described as above.
The target of assay [18] is hCD1d/β-2-microglobulin refolded with α-GalCer thioamide 6 (human) (UniProt P15813). The assay is described as above.

Turning to “soluble human iNKT cell T cell receptor (Vα24/Vβ11 heterodimer) (TCR)”, the koff – broadly, a measure of how fast the partners let go of each other – in [1] was found to be 1.19 s⁻¹; in assay [2], 1.18 s⁻¹; in [3] it was 0.565 s⁻¹; in assay [4] it was 1.88 s⁻¹; in assay [5] it was 0.919 s⁻¹; in assay [6] it was 0.537 s⁻¹. In addition, the on-rate (kon) (in general, the rate constant with which the complex forms) in [7] was 259000 M⁻¹ s⁻¹; in [8], 258000 M⁻¹ s⁻¹; in [9], 258000 M⁻¹ s⁻¹; in assay [10], 520000 M⁻¹ s⁻¹; in assay [11], 534000 M⁻¹ s⁻¹; in [12] it was 128000 M⁻¹ s⁻¹. The dissociation constant Kd (as a rule, the constant that tells how readily two partners part at equilibrium) was determined as 4.6 µM in [13]; 4.57 µM in [14]; 2.19 µM in [15]; 36.1 µM in assay [16]; 1.72 µM in assay [17]; 4.2 µM in assay [18].
